The record followed here is US20210122824A1 (ADAGENE, published 2021).

Assay [1] deals with T1, human PD-L1 expressed on cell surface (human, UniProt Q9NZQ7 19-290).
T1 construct: whole, on cells; also called full-length human PD-L1; cell surface PD-L1
Nature of the assay: blocking by flow cytometry, HEK293F cells expressing full-length human PD-L1, 100 nM antibody then 100 nM biotinylated PD1-His (blocked ligand), Alexa fluor 633 streptavidin; isotype control panel Q2 35.1%. (In general: A flow cytometer gives signals particle by particle.)

In assay [2] the target is T2, human PD-L1-Fc fusion protein (Sino Biological Cat #10084-H02H) (human, UniProt Q9NZQ7 19-239).
T2 construct: bought; not shown: Fc part of the bought fusion
Nature of the assay: SPR (Biacore T200), human PD-L1-Fc immobilized (300 RU), IgG in solution. Background: Surface plasmon resonance follows binding to a sensor surface in real time, without labels.

Assay [3] has as its target T3, human TIM3 expressed on HEK293F cells (human, UniProt Q8TDQ0 22-301).
T3 construct: whole, on cells
Nature of the assay: flow cytometry, HEK293F cells transiently expressing the target, 100 nM antibody, PE anti-human Fc; Mean (PE-A against FITC-A, GFP surrogate).

Assay [4] has as its target T4, human LAG3 expressed on HEK293F cells (human, UniProt P18627 23-525).
T4 construct: whole, on cells
T4 sequence (looked up): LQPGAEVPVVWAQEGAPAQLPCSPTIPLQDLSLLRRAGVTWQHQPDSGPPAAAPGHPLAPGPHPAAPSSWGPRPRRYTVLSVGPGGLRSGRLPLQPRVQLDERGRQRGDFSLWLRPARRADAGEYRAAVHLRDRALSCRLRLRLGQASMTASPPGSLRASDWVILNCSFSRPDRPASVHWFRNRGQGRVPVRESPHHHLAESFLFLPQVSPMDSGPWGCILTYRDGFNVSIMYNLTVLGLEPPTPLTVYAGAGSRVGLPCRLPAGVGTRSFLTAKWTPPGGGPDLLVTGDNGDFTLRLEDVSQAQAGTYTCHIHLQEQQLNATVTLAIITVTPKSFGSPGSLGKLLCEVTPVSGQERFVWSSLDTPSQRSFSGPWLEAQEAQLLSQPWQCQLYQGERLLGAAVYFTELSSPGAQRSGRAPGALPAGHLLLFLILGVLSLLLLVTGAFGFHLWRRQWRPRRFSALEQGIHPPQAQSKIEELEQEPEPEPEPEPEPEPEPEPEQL
Described as above.

Assay [5] concerns the target T5, human CTLA4 expressed on HEK293F cells (human, UniProt P16410 36-223).
T5 construct: whole, on cells
Described as above.

In assay [6] the target is T2, human PD-L1-Fc fusion protein (Sino …). Nature of the assay: competition ELISA, PD1-Fc (1 ug/mL) coated, biotinylated PD-L1-Fc mixed with antibody, HRP neutravidin; blocked ligand PD1-Fc. A general note: In an ELISA, binding on a coated surface is turned into a signal by an enzyme label.
The target of assay [7] is T6, mouse PD-L1-Fc fusion protein (mouse, UniProt Q9EP73 19-238, limits assumed).
T6 construct: not shown: Fc part
Nature of the assay: SPR (Biacore T200), PD-L1-Fc immobilized (about 500 RU), IgG in solution.

In assay [8] the target is T7, human B7-H3 expressed on HEK293F cells (human, UniProt Q5ZPR3 29-534).
T7 construct: whole, on cells
T7 sequence (looked up): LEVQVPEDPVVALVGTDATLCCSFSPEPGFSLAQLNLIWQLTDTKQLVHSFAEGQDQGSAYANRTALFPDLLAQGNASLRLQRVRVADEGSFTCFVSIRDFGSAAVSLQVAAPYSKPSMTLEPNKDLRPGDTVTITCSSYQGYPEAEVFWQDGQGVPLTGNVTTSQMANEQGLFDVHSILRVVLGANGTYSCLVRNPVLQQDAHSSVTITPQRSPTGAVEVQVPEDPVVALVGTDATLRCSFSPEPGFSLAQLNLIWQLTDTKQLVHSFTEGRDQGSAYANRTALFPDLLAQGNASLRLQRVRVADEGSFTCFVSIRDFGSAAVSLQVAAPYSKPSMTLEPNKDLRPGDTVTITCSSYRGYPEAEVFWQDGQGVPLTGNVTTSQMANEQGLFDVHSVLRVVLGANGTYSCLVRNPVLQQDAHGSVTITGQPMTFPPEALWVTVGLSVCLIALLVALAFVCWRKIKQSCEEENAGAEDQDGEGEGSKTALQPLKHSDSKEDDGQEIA
Nature of the assay: flow cytometry on transfected HEK293F cells.

In assay [9] the target is T3, human TIM3 expressed on HEK293F cells. Kind of assay: flow cytometry on transfected HEK293F cells.
Assay [10] has as its target T4, human LAG3 expressed on HEK293F cells. Kind of assay: flow cytometry on transfected HEK293F cells.
Assay [11] has as its target T8, human PD1 expressed on HEK293F cells (human, UniProt Q15116 25-288).
T8 construct: whole, on cells
Nature of the assay: flow cytometry on transfected HEK293F cells.

Assay [12] concerns the target T5, human CTLA4 expressed on HEK293F cells. Nature of the assay: flow cytometry on transfected HEK293F cells.
In assay [13] the target is T1, human PD-L1 expressed on cell surface. Nature of the assay: flow cytometry on stable cell line 293T-002 expressing PD-L1; 293T-002 cells expressing PD-L1, flow cytometry.
The target in assay [14] is T9, rhesus PD-L1 expressed on HEK293F cells (rhesus, UniProt F6VEW6 19-290).
T9 construct: whole, on cells
Kind of assay: flow cytometry, HEK293F cells transiently expressing the target, 100 nM antibody, PE anti-human Fc; Mean (PE-A against FITC-A, GFP surrogate).

The target in assay [15] is T8, human PD1 expressed on HEK293F cells. The description is as above.
The target in assay [16] is T1, human PD-L1 expressed on cell surface. Described as above.

T1 sequence (Q9NZQ7 19-290): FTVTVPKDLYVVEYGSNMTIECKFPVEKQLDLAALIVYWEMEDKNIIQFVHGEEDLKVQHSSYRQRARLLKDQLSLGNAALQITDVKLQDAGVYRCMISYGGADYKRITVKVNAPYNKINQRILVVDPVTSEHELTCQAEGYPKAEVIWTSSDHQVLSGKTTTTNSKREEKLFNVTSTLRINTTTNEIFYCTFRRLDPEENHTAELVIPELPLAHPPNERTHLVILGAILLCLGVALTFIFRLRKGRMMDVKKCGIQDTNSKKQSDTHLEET
T2 sequence (Q9NZQ7 19-239 limits assumed): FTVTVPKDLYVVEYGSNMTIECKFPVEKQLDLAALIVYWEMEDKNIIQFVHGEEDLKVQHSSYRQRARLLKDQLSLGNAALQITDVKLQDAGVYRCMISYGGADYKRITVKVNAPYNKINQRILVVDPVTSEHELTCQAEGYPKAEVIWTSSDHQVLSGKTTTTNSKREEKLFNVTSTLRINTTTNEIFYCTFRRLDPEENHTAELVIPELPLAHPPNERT
T6 sequence (Q9EP73 19-238 limits assumed): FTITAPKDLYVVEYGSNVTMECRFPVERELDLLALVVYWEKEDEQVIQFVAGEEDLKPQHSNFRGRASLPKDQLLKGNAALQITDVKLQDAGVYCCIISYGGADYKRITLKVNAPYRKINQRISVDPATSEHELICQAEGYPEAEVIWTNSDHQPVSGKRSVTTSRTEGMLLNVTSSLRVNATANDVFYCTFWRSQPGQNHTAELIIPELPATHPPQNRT
T8 sequence (Q15116 25-288): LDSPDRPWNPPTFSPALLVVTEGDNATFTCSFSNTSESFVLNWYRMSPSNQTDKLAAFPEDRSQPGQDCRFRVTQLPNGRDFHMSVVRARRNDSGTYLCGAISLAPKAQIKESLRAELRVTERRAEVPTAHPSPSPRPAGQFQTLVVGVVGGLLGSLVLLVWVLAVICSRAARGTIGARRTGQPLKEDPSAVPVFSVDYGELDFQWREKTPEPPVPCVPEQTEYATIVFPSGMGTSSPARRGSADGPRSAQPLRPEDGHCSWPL
T5 sequence (P16410 36-223): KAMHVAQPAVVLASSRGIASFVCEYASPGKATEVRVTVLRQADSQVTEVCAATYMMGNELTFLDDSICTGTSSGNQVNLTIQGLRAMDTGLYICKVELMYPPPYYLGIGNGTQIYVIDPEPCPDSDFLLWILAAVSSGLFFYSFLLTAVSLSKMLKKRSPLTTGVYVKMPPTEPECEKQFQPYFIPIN

B1: TY21421 (antibody, V domains shown)
VH: EVQLVESGGGLVQPGGSLRLSCAASGYSISSGYYWGWIRQAPGKGLEWIGIIYPSGGGTNYAQKFQGRVTISRDNSKNTLYLQLNSLRAEDTAVYYCARGGGLGFDYWGQGTLVTVSS
VL: DIQLTQSPSSLSASVGDRVTITCRASQSIPSFLNWYQQKPGKAPKLLIYAASSLQSGVPSRFSGSGSGTDFTLTISSLQPEDFATYYCQHYISWPRQFTFGQGTKVEIKR
notes: IgG1 (wild type) made from Fab B15041, from HEK293F cells
Consider B1, for which, in [1], the “Q2 (percent of cells positive for GFP and for the APC signal of PD1-His, antibody present)” value stood at 0.27%. Further, the Kd in assay [2] was 8.63 pM; in assay [7], 1.86 pM. The figures for the koff in assay [2] and in assay [7] were 5.73e-05 s⁻¹ and 2.06e-05 s⁻¹, respectively. In addition, the figures for the on-rate (kon) in assay [2] and in [7] were 6.64e+06 M⁻¹ s⁻¹ and 1.11e+07 M⁻¹ s⁻¹, respectively. Also, the Mean in [3] stood at 8100; in assay [4], 5850; in assay [5], 4900; in assay [14] it was 184000; in [15], 6980; in assay [16] it was 170000. Moreover, in assay [6], the “IC50 (read off the curve)” value is around 6000 pM. In addition, the binding result in assay [8], in [9], in assay [10], in assay [11] and in assay [12] was “no binding (tested: 100 nM)” each time. Further, it took 1080 pM to reach a half-maximal effect in assay [13] (EC50).

As a reminder, the Kd is the free concentration of one partner at which half of the binding sites on the other are occupied at equilibrium, for simple one-to-one binding. In general, koff refers to a measure of how fast the partners let go of each other. A high value points to a short-lived complex. Broadly, the kon is the second-order rate constant of association. Read a low kon as slower complex formation. As a reminder, the EC50 is the concentration giving half of the maximal effect. Higher therefore signals weaker potency.
